The target in assay [1] is T1, CD99 peptide number 6 (Biotin-Ahx-AVVDGENDDPRPPNP) (human).
T1 peptide: {Biotin-Ahx}-AVVDGENDDPRPPNP
In words: BLI. Background: Biolayer interferometry detects binding as a change in optical thickness at a sensor tip.

Assay [2] has as its target T2, CD99 peptide number 6 (Biotin-Ahx-AVVDGENDDPRPPNP) (Homo sapiens).
T2 construct: stretch of human CD99
T2 chain: {Biotin-Ahx}-AVVDGENDDPRPPNP
The experiment in a line: BLI; Biotin-Ahx-AVVDGENDDPRPPNP (10 ug/mL) loaded on streptavidin biosensors; antibody 0.625 to 10 ug/mL in PBS with 0.05% Tween 20; Octet K2. Particulars: both partners purified.

For a further assay, the target named is T3, CD99ExhIgG (Homo sapiens, UniProt P14209).
T3 construct: extracellular part of human CD99; also called CD99ExIgG; recombinant CD99ExhIgG; source: HEK293T stably expressing, culture supernatant, purified (HiTrap Protein G)
T3 sequence (P14209 23-122): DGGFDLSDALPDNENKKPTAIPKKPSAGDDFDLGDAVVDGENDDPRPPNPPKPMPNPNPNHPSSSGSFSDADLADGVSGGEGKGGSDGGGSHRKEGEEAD
The experiment in a line: ELISA; indirect ELISA; CD99ExhIgG (or CD147Rg as negative control) coated on the plate at 4 °C overnight; purified HuScFvMT99/3 (HIS6X) at 1, 5 and 10 ug/mL, room temperature 1 h; detected with HRP anti-His tag antibody. The settings on record: both partners purified. Background: In an ELISA, binding on a coated surface is turned into a signal by an enzyme label.

Where no end group is shown, it is not given here. The star is where a group is joined. Biotin = O=C1N[C@H]2[C@H](CS[C@H]2CCCCC(=O)*)N1; Ahx = NCCCCCC(=O)O

In general, koff refers to the first-order rate constant of dissociation. As a reminder, the Kd is the free concentration of one partner at which half of the binding sites on the other are occupied at equilibrium, for simple one-to-one binding. High values mean lower affinity, low ones higher affinity.

B1: mouse anti-CD99 monoclonal antibody MT99/3 (antibody, V domains shown)
VH: VQLQQSGAELVKPGASVRLSCTLSGFNIKDTYIHWVNQRPEQGLEWIGRIDPGNGNIKYDPKFQGKATITADTSSNKVYLHLSSLTSEDTAVYYCARSGGYDFDYWGQGTTLTVSS
VL: DVVMTQTPLSLPVSLGYQVSISCRSSQSLVHSNGNTYLHWYLQKPGQSPKLLIYTVSNRFSGVPDRFSGSGSGTDFTLKISRVEAEDLGVYFCSQSTYVPYTFGGGTKLEKK
notes: mouse IgG heavy constant region; Parent antibody of m1 and m2; also called mAb MT99/3; mouse MT99/3
With B1, in assay [1], the koff is 8.06e-05 s⁻¹. In assay [2], this molecule had a Kd of 0.316 nM.

B2: HuScFvMT99/3 (HIS6X) (scFv, V domains shown)
VH: QVQLQESGPGLVKPSETLSLTCTLSGFNIKDTYIHWVRQPPGKGLEWIGRIDPGNGNIKYDPKFQGRATISADTSKNQVSLNLDSVSAADTAIYYCARSGGYDFDYWGKGSTVTVSS
VL: VQMTQSPSSLSASVGDRVTITCRSSQSLVHSNGNTYLHWYQQKPGKAPKLLIYTVSNRFSGVPSRFSGSGSGTDFTFTISSLQPEDIATYFCSQSTYVPYTFGPGTKVDIK
notes: V-KAPPA domain of HuScFvMT99/3; linker of the ScFvkh format (V-KAPPA-linker-VH); VH domain of HuScFvMT99/3; order V-KAPPA-linker-VH; cloned NdeI/XhoI into pET-21a; also called humanized single-chain Fv MT99/3; humanized ScFv variant of mAb MT99/3; source: E. coli Origami B (DE3), purified (Ni-NTA agarose); not shown: His6, C-terminal, kept
In the case of B2, the binding result with CD99ExhIgG is recorded as “binds”.

These data come from paper PMC11592157, “Exploring the Biological Activity of a Humanized Anti-CD99 ScFv and Antibody for Targeting T Cell Malignancies” (Biomolecules, 2024).
